# Measured values: PMC4914250
# B1: p53RE oligo (dsDNA)
# DNA 1: CTGCTGAAGCTTCGAATTCCTAGACATGCCCAGACATGTCCTACTGCTGCTGCTGCTGCTGCTGCGAACATGTCCCAACATGTTGCTGCTGCTGCTGCTG
# DNA 2: CAGCAGCAGCAGCAGCAACATGTTGGGACATGTTCGCAGCAGCAGCAGCAGCAGCAGTAGGACATGTCTGGGCATGTCTAGGAATTCGAAGCTTCAGCAG
# Tests used:
# WT p53 DBD = WT p53 DBD (UniProt P04637 94-293); assay: pull-down (streptavidin beads, Western blot); DBD pull-down: streptavidin beads with biotinylated oligo, 3 h at 4 C; Figure 1A: 50 ng protein; buffer, salt and pH not in the material; ELISA per R&D kit; details: protein: recombinant; label: 5' biotin; annealed to complementary oligo
# [1] = target: WT p53 full length (His-tagged) (UniProt P04637 1-393); assay: as above; details: protein: recombinant; tags: His; label: 5' biotin; annealed to complementary oligo
# WT p53 full length (His-tagged), sequence (P04637 whole entry): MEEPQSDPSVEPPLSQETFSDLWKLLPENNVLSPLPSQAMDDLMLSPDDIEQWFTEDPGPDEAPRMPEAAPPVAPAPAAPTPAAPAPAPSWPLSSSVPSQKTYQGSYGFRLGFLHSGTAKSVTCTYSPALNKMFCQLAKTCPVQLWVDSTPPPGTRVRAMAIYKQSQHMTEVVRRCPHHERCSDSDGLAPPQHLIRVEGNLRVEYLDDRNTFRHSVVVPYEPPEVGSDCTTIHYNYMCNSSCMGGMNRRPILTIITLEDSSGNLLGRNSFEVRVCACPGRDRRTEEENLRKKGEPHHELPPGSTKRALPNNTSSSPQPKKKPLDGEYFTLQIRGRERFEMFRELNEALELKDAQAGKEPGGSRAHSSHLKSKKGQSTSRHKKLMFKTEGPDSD
# WT p53 DBD, sequence (P04637 94-293): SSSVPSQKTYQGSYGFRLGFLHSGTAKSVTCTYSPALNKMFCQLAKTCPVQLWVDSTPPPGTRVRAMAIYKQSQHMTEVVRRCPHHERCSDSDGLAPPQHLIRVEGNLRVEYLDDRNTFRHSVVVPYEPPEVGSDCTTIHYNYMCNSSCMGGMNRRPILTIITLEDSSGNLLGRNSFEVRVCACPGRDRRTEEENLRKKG
binder,measurement,setting,value
B1,binding result,WT p53 DBD,binds
same,binding result,[1],binds
